In patent publication US11718646B2, “Bovine adrenal medulla peptide 8-22 compounds and methods of use thereof for treating pain” (Tufts Medical Center, priority 2015, dated 2023):
No end group written: not given here.

Tests used:
wild type MrgprX1 = target: T1, wild type MrgprX1 (Homo sapiens, UniProt Q96LB2); test: SRE-luciferase reporter gene assay in transfected HEK293 cells, wild type receptor; type: cell-based
T1 construct: expressed in transfected cells; host or cells: HEK293
Procedure: A luciferase reporter-based assay was utilized as an index of receptor-mediated signaling (as in Doyle et al., 2013). Human kidney cells (HEK293), grown in Dulbecco's modified Eagle's medium (DMEM) containing 10% FBS, 100 U/ml penicillin, and 100 μg/ml streptomycin were seeded in 96-well plates and grown to 80% confluence. Using polyethylenimine (PEI, 2.0 μg/mL in serum-free DMEM), cells were transiently transfected with cDNAs encoding (a) wild type or variant MrgprX1 (3 ng/well); (b) an SRE-luciferase PEST construct (SRE5×-Luc-PEST), which includes five SRE repeats, a luciferase reporter gene, and the protein degradation sequence hPEST (Promega, catalog #E1340) (25 ng/well); and (c) a CMV-β-galactosidase construct as a control for variability in transfection efficiency (10 ng/well). In experiments that included transfection of an MTL-encoding construct, the corresponding cDNA was added to the transfection mix, at 4 ng/well or as indicated.
(§1) Twenty-four hours following transfection, cells were stimulated with soluble ligand for 4 hours (if applicable). After addition of SteadyLite reagent (PerkinElmer, Chicago, Ill.), luciferase activity of the lysate was measured using a TopCount NTX plate reader. Subsequently, 2-nitrophenyl β-D-galactopyranoside (ONPG) was added as a colorimetric substrate to enable quantification of β-galactosidase levels. After incubation with ONPG for 30 minutes, absorbance at 420 nm was measured using a SpectraMax microplate reader (Molecular Devices). Luciferase activity was normalized using the β-galactosidase activity data. Three independent experiments were performed, each with three technical replicates. Data were graphed and statistically analyzed using Graphpad Prism software.
GraphPad Prism software version 6.0 (GraphPad Software Inc., La Jolla, Calif.) was used for sigmoidal curve fitting of ligand concentration—response curves, linear regression, and statistical analysis. EC50 and pEC50 values were calculated for each independent experiment as an index of ligand potency. Reported values represent the mean of three independent experiments. Statistical comparisons were made by one-way analysis of variance with Dunnett's multiple comparisons test.
As additional tools for structure-function studies, MTLs incorporating one of two endogenous peptide ligands for MrgprX1, BAMS-22 and γ2-MSH, were generated. The activities of MTL constructs in both orientations (type I, with an extracellular N terminus of the ligand; type II, with an extracellular C terminus) were assessed using a luciferase-based reporter assay as described herein. […] Luciferase activity was quantified and normalized relative to β-galactosidase expression. […]

MrgprX1 H133R variant = target: T2, MrgprX1 H133R variant (Homo sapiens, UniProt Q96LB2, H133R); test: SRE-luciferase reporter gene assay in transfected HEK293 cells, H133R variant; type: cell-based
T2 construct: expressed in transfected cells; host or cells: HEK293
T2 sequence (Q96LB2 whole entry H133R): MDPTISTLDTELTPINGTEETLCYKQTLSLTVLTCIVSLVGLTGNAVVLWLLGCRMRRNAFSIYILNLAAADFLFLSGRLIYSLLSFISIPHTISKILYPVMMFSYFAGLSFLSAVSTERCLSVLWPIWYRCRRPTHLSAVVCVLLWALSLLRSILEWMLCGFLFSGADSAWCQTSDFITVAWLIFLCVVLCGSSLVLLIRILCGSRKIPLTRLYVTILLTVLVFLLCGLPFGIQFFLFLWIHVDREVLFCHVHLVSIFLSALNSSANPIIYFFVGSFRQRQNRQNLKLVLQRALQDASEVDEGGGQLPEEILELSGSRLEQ
Procedure: (§2) A luciferase reporter-based assay was utilized as an index of receptor-mediated signaling (as in Doyle et al., 2013). Human kidney cells (HEK293), grown in Dulbecco's modified Eagle's medium (DMEM) containing 10% FBS, 100 U/ml penicillin, and 100 μg/ml streptomycin were seeded in 96-well plates and grown to 80% confluence. […]
as §1, with “Luciferase activity was normalized using the β-galactosidase activity data. Three independent experiments were performed, each with three technical replicates.” left out
(§3) GraphPad Prism software version 6.0 (GraphPad Software Inc., La Jolla, Calif.) was used for sigmoidal curve fitting of ligand concentration—response curves, linear regression, and statistical analysis. EC50 and pEC50 values were calculated for each independent experiment as an index of ligand potency. […]
(§4) The activity of tethered and lipidated BAMS-22 at each of the seven MrgprX1 variants was assessed (FIGS. 4A-4B). […]

MrgprX1 R131S variant = target: T3, MrgprX1 R131S variant (Homo sapiens, UniProt Q96LB2, R131S); test: SRE-luciferase reporter gene assay in transfected HEK293 cells, R131S variant; type: cell-based
T3 construct: expressed in transfected cells; host or cells: HEK293
T3 sequence (Q96LB2 whole entry R131S): as the sequence (Q96LB2 whole entry H133R) above, with R131S, R133H counted along it
Procedure: as §2
as §1, with “Luciferase activity was normalized using the β-galactosidase activity data. Three independent experiments were performed, each with three technical replicates.” left out
as §3
Signaling of MrgprX1 following stimulation with the endogenous peptide ligand BAM8-22 was measured using a luciferase reporter assay as described herein. […]

MrgprX1 R55L variant = target: T4, MrgprX1 R55L variant (Homo sapiens, UniProt Q96LB2, R55L); test: SRE-luciferase reporter gene assay in transfected HEK293 cells, R55L variant; type: cell-based; conditions: significant only with tethered γ2-MSH
T4 construct: expressed in transfected cells; host or cells: HEK293
T4 sequence (Q96LB2 whole entry R55L): as the sequence (Q96LB2 whole entry H133R) above, with R55L, R133H counted along it
Procedure: as §2
as §1, with “Luciferase activity was normalized using the β-galactosidase activity data. Three independent experiments were performed, each with three technical replicates.” left out
as §3, §4

MrgprX1 F273L variant = target: T5, MrgprX1 F273L variant (Homo sapiens, UniProt Q96LB2, F273L); test: SRE-luciferase reporter gene assay in transfected HEK293 cells, F273L variant; type: cell-based; conditions: significant only with tethered γ2-MSH
T5 construct: expressed in transfected cells; host or cells: HEK293
T5 sequence (Q96LB2 whole entry F273L): as the sequence (Q96LB2 whole entry H133R) above, with R133H, F273L counted along it
Procedure: as §2
as §1, with “Luciferase activity was normalized using the β-galactosidase activity data. Three independent experiments were performed, each with three technical replicates.” left out
as §3, §4

[1] = test system: spinal nerve ligation neuropathic pain; conditions: intrathecal; rats; cited from earlier work

T1 sequence (Q96LB2 whole entry): as the sequence (Q96LB2 whole entry H133R) above, with R133H counted along it

Row | Substance | tethered ligand induced receptor activity of substituted BAM8-22 MTL (wild type MrgprX1; MTL construct in HEK293 cells) | ligand-mediated signaling compared to wild type receptor (MrgprX1 H133R variant) | ligand-mediated signaling compared to wild type receptor (MrgprX1 R131S variant) | signaling at saturating concentration, of maximum lipidated BAM8-22 signaling (wild type MrgprX1; WT receptor, relative to lipidated BAM8-22 at 10^−7 M, mean±SEM, data not shown) | MTL activation of the receptor (wild type MrgprX1; co-expressed with MrgprX1 in HEK293, increasing amounts of MTL cDNA, FIG. 3A, 3B) | ligand-mediated signaling compared to wild type receptor (MrgprX1 R55L variant) | ligand-mediated signaling compared to wild type receptor (MrgprX1 F273L variant) | receptor stimulation at the highest tested concentration (wild type MrgprX1; 10 μM, accurate EC50 values could not be calculated) | time after administration at which the effect returns to baseline [1]
1 | M15A-Y17W: double substituted BAM8-22 MTL analog, M15A and Y17W (VGRPEWWADWQKRYG; left off: small tags and cut ends; large carriers) | full activity |  |  |  |  |  |  |  | 
2 | tethered BAM8-22: cDNA-encoded type I membrane tethered ligand: BAM8-22 fused to a transmembrane domain via a flexible linker, free extracellular N terminus (VGRPEWWMDYQKRYG; also: fused at C-terminus via flexible linker to a transmembrane domain (type I tethered ligand)) |  | not observed | negligible signaling levels | 38.4±5.4% | Active | moderate decrease in signaling | moderate decrease in signaling |  | 
3 | bovine adrenal medulla peptide 8-22 (VGRPEWWMDYQKRYG) [BAM8-22, reference compound] |  |  | lower levels of BAMS-22 mediated activity |  |  |  |  | does not fully stimulate the receptors | 90 min
